Paper PMC9279507

Columns and labels:
[1] = target: STAT1cc (STAT1 core fragment, A656C and N658C, locked dimer), tag-free (UniProt P42224); experiment: nickel affinity copurification, SDS-PAGE, Coomassie blue band quantification; conditions: parent: est. 1.0; read off a plot
[2] = target: GST-tagged TgIST-R2 (Toxoplasma gondii (type I strain GT1)); experiment: BLI; GST-tagged TgIST-R2 loaded on anti-GST biosensors, pSTAT1d or pSTAT1d-linker-R2 in solution; kinetic buffer (ForteBio), 25 °C; apparent avidity, 1:2 model
[3] = target: phosphorylated STAT1 dimer (pSTAT1d), STAT1 core domain S132-H713 (human) (UniProt P42224); experiment: BLI; His-tagged pSTAT1d or STAT1 monomer loaded on Ni-NTA biosensors, TgIST-R2 proteins in solution; kinetic buffer (ForteBio), 25 °C; 1:1 model for the constant

Substance	ratio to parent [1]	further results
6XHis-tagged TgIST-R2 (G365-S420) Q378A	0.83	
6XHis-tagged TgIST-R2 (G365-S420) Q391A	1.1	
6XHis-tagged TgIST-R2 (G365-S420) R416A; R417A	0.98	
6XHis-tagged TgIST-R2 (G365-S420) L383A	0.01	
6XHis-tagged TgIST-R2 (G365-S420) R387A	0.03	
6XHis-tagged TgIST-R2 (G365-S420) D384A	0.57	
6XHis-tagged TgIST-R2 (G365-S420) Q392A	0.91	
6XHis-tagged TgIST-R2 (G365-S420) L386A	0.02	
phosphorylated STAT1 dimer (pSTAT1d), STAT1 core domain S132-H713 (from UniProt P42224 132-713) (domain or fragment)		Kd [2]: 22 nM
6XHis-tagged TgIST-R2 (G365-S420) T381A	0.38	
6XHis-tagged TgIST-R2 (G365-S420) Q391A; Q392A	0.99	
6XHis-tagged TgIST-R2 (G365-S420) E388A	1.1	
TgIST-R2 peptide after GST removal (domain or fragment)		Kd [3]: 330 nM
